Source: patent US20030191083

Molecular target: T1, RNase P protein (SPP, SP protein) (Staphylococcus aureus) (UniProt A8YYS2)
T1 sequence: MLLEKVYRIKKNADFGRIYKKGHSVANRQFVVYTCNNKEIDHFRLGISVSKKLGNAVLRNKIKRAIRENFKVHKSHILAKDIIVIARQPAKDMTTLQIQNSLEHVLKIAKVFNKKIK
Experiment: filter

GUUCUGAUAUUUUGGGUAAUCGCUAUAUUAUAUAGAGGAAAGUCCAUGCUCACACAGUCUGAGAUGAUUGUAGUGUUCGUGCUUGAUGAAACAAUAAAUCAAGGCAUUAAUUUGACGGCAAUGAAAUAUCCUAAGUCUUUCGAUAUGGAUAGAGUAAUUUGAAAGUGCCACAGUGACGUAGCUUUUAUAGAAAUAUAAAAGGUGGAACGCGGUAAACCCCUCGAGUGAGCAAUCCAAAUUUGGUAGGAGCACUUGUUUAACGGAAUUCAACGUAUAAACGAGACACACUUCGCGAAAUGAAGUGGUGUACGACAGAUGGUUAUCACCUGAGUACCAGUGUGACUAGUGCACGUGAUGAGUACGAUGGAACAGAACAUGGCUUAUAGAAAUAUCACUACUA [S. aureus RNase P RNA (SP RNA)]
Kd (20 mM K-Hepes pH 8.0, 0.01% NP40, 400 mM NH4OAc, 10 mM MgCl2, 5% glycerol, at least three experiments): 8 nM
Kd (binding constant of the complex stated in summary, filter binding and gel shift, differs from 8 nM in p322): 20 nM
